Biological target: the molecule itself
Experiment: negative-stain electron microscopy

B1: AtPORB Y177F_H319A double mutant (enzyme, A. thaliana)
chain: QTAATSSPTVTKSVDGKKTLRKGNVVVTGASSGLGLATAKALAETGKWNVIMACRDFLKAERAAKSVGMPKDSYTVMHLDLASLDSVRQFVDNFRRTETPLDVLVCNAAVFFPTAKEPTYSAEGFELSVATNHLGHFLLARLLLDDLKKSDYPSKRLIIVGSITGNTNTLAGNVPPKANLGDLRGLAGGLNGLNSSAMIDGGDFDGAKAYKDSKVCNMLTMQEFHRRFHEETGVTFASLYPGCIASTGLFREAIPLFRALFPPFQKYITKGYVSETESGKRLAQVVSDPSLTKSGVYWSWNNASASFENQLSEEASDVEKARKVWEISEKLVGLA
  binding result: binds

— publication PMC11110527 (Chemical Science, 2024)
